Experiment [1] concerns bovine choroidal endothelial (BCE) cells. Kind of experiment: BCE endothelial cell proliferation assay (alamar blue). Type of experiment: cell-based. Conditions: for BCE cell growth normalized to the vehicle control group: day 6, n = 3. Details: key to BCE cell growth normalized to the vehicle control group: ns, not statistically significant. The procedure: The bovine endothelial proliferation assays were performed essentially as previously described (63, 64). BCE (1×10^3 cells/well) or BRE (5×10^2 cells/well) cells were seeded in 96-well plates in the culture medium (DMEM-low glucose supplemented with 10% BCS, 2 mM glutamine and antibiotics) plus testing materials with a total volume of 200 μl per well. BAE cells were plated in 96-well plates at a density of 2×10^3 cells in the culture medium (DMEM-low glucose supplemented with 1% BCS and antibiotics) plus testing material with a total volume of 200 μl per well. HRME cells were seeded at a density of 1×10^3 cells/well in gelatin-coated 96-well plates in assay medium (DMEM-low glucose supplemented with 20% FBS and antibiotics) plus testing materials to make a total volume 200 μl per well. For assays involving antibodies or small-molecule inhibitors, inhibitors or vehicle controls were first added and then test materials were added one hour later. After 6 days (unless otherwise specified), cells were incubated with alamar blue for 4 h. Fluorescence was measured at 530 nm excitation wavelength and 590 nm emission wavelength. Each experiment was carried out in duplicate/triplicate and repeated at least three times.
A general note: Resazurin is reduced to fluorescent resorufin, in cell work by metabolically active cells.

Experiment [2] concerns retinal vasculature of mouse eyes. Put plainly: Intravitreal injection of recombinant proteins in mouse eyes, retinal vessel density. It counts as in vivo. As to conditions: mice, intravitreal. As for the experimental part:
Male C57BL/6J mice (6-8 week and P5) were anesthetized with ketamine/Xylazine cocktail. The indicated amounts of recombinant LIF (Sigma, CAT #SRP9001) in 1 μl of PBS and PBS vehicle control were injected intravitreally with a 33-gauge Hamilton syringe. Seven (for adult mice) or 3 (for neonatal mice) days after injection, animals were euthanized, eyes were then enucleated and fixed in 4% paraformaldehyde (PFA) for 15 min. Choroid-sclera complexes and retinas were separated and anti-CD31 immunofluorescence (IF) or lectin labeling was performed to evidence the vasculature by whole mount staining of both retina and choroidal tissues or flat-mounts of retina. For CD31 IF, rat anti-mouse antibody (BD Biosciences, CAT #550274) was diluted 1:100 and incubated overnight at 4° C. After 4-hour incubation with the Alexa Fluor-488-conjugated anti-rat antibody (Life Technologies, CAT #A11006), whole mounts were imaged via the 488 nm channel using Keyence Microscope BZ-X710 (Keyence Corporation, Osaka, Japan) or A1R Confocal STORM super-resolution system (Nikon). For lectin staining, Dylight-488-labeled lectin (Vector Laboratories, CAT #DL-1174) was diluted at 1:200 and images were obtained using A1R Confocal STORM super-resolution system (Nikon). For Quantification of vascular density in choroids and retina was carried out by Image J. Student's t test was used for statistical analysis. […]
Optical coherence tomography angiography (OCTA) imaging of the retina of adult mice was performed 7 days after LIF injection, using a 1300 nm optical coherence tomography (OCT) system developed by Dr. R. K. Wang's group at University of Washington Seattle, in agreement with previously described methodology (66). […] To quantify the retinal vascular density, retinal and choroidal layers in 3D structure OCT scans were separated by the hyper-reflecting retinal pigment epithelium (RPE). […] The vessel density was then determined by calculating the percentages of vessel-covered area in total area of view using the ImageJ software.

In experiment [3] the test system is choroid capillaries of NaIO3-treated mice. Kind of experiment: Sodium iodate (NaIO3) model, choroid capillary recovery. Type of experiment: in vivo, mouse. Conditions: NaIO3 20 mg/kg i.v.; intravitreal LIF 50 ng, CT-1 different doses, OSM 10 ng; OCT-A. As for the experimental part:
Eight-week-old C57BL/6J mice were anesthetized with ketamine/xylazine cocktail. Sterilized NaIO3 was administered as a single intravenous injection (20 mg/kg body weight) (28) (29). Control mice were injected with PBS. PBS, LIF (50 ng), CT-1 (different doses) or OSM (10 ng) was injected intravitreally in five-mice groups. Five, seven and nine days after injection, choroid capillaries were monitored by OCT-A system. 9 days after injection, mice were killed and eyes were harvested for H&E and immunofluorescent staining. Avascular area in choroid capillaries was analyzed using ImageJ.

B1: PRDX-1: recombinant human Peroxiredoxin 1 (protein, UniProt Q06830 2-199, looked up)
Peroxiredoxin-1: SSGNAKIGHPAPNFKATAVMPDGQFKDISLSDYKGKYVVFFFYPLDFTFVCPTEIIAFSDRAEEFKKLNCQVIGASVDSHFCHLAWVNTPKKQGGLGPMNIPLVSDPKRTIAQDYGVLKADEGISFRGLFIIDDKGILRQITVNDLPVGRSVDETLRLVQAFQFTDKHGEVCPAGWKPGSDTIKPDVQKSKEYFSKQK
As to B1, the “stimulation of BCE cell growth (mitogenic activity)” value in experiment [1] was “had no effect”. For the same molecule, the “BCE cell growth normalized to the vehicle control group” value in experiment [1] (3 ng/ml), in experiment [1] (10 ng/ml), in experiment [1] (30 ng/ml), in experiment [1] (100 ng/ml), in experiment [1] (300 ng/ml) and in experiment [1] (1000 ng/ml) was “ns” in each case.

B2: CT-1: cardiotrophin-1, IL-6 family member (protein, UniProt Q16619 1-201, looked up)
Cardiotrophin-1: MSRREGSLEDPQTDSSVSLLPHLEAKIRQTHSLAHLLTKYAEQLLQEYVQLQGDPFGLPSFSPPRLPVAGLSAPAPSHAGLPVHERLRLDAAALAALPPLLDAVCRRQAELNPRAPRLLRRLEDAARQARALGAAVEALLAALGAANRGPRAEPPAATASAASATGVFPAKVLGLRVCGLYREWLSRTEGDLGQLLPGGSA
With B2, the “increase in retinal density” value in experiment [2] (20 ng) is listed as “approximately 30%”; in experiment [2] (100 ng), ~50%. In addition, the “avascular areas in choroid compared to PBS group” value in experiment [3] is reported as “reduced avascular areas”.

B3: OSM: oncostatin M, IL-6 family member (protein, UniProt P13725 26-221, looked up)
Oncostatin-M: AAIGSCSKEYRVLLGQLQKQTDLMQDTSRLLDPYIRIQGLDVPKLREHCRERPGAFPSEETLRGLGRRGFLQTLNATLGCVLHRLADLEQRLPKAQDLERSGLNIEDLEKLQMARPNILGLRNNIYCMAQLLDNSDTAEPTKAGRGASQPPTPTPASDAFQRKLEGCRFLHGYHRFMHSVGRVFSKWGESPNRSRR
As for B3, in experiment [2], the “vascular density in the retina” value is “vascular density decreased”. For the same molecule, the “avascular areas in choroid compared to PBS group” value in experiment [3] is “larger than in the PBS group”.

These data come from patent US20220105157A1, “Compositions and Methods for Promoting Angiogenesis in the Eye” (The Regents of the University of California, priority 2019, published 2022).
